Biological target: the molecule itself
Test: SEC

B1: purified wild-type lipin1β (His6-tagged, baculovirus expressed) (enzyme, mouse, UniProt Q91ZP3 1-924, looked up)
chain: MNYVGQLAGQVFVTVKELYKGLNPATLSGCIDIIVIRQPNGSLQCSPFHVRFGKMGVLRSREKVVDIEINGESVDLHMKLGDNGEAFFVQETDNDQEIIPMYLATSPILSEGAARMESQLKRNSVDRIRCLDPTTAAQGLPPSDTPSTGSLGKKRRKRRRKAQLDNLKRDDNVNSSEDEDMFPIEMSSDEDTAPMDGSRTLPNDVPPFQDDIPKENFPSISTHPQSASYPSSDREWSPSPSSLVDCQRTPPHLAEGVLSSSCPLQSCHFHASESPSGSRPSTPKSDSELVSKSADRLTPKNNLEMLWLWGELPQAAKSSSPHKMKESSPLGSRKTPDKMNFQAIHSESSDTFSDQSPTMARGLLIHQSKAQTEMQFVNEEDLESLGAAAPPSPVAEELKAPYPNTAQSSSKTDSPSRKKDKRSRHLGADGVYLDDLTDMDPEVAALYFPKNGDPGGLPKQASDNGARSANQSPQSVGGSGIDSGVESTSDSLRDLPSIAISLCGGLSDHREITKDAFLEQAVSYQQFADNPAIIDDPNLVVKVGNKYYNWTTAAPLLLAMQAFQKPLPKATVESIMRDKMPKKGGRWWFSWRGRNATIKEESKPEQCLTGKGHNTGEQPAQLGLATRIKHESSSSDEEHAAAKPSGSSHLSLLSNVSYKKTLRLTSEQLKSLKLKNGPNDVVFSVTTQYQGTCRCEGTIYLWNWDDKVIISDIDGTITRSDTLGHILPTLGKDWTHQGIAKLYHKVSQNGYKFLYCSARAIGMADMTRGYLHWVNERGTVLPQGPLLLSPSSLFSALHREVIEKKPEKFKVQCLTDIKNLFFPNTEPFYAAFGNRPADVYSYKQVGVSLNRIFTVNPKGELVQEHAKTNISSYVRLCEVVDHVFPLLKRSHSCDFPCSDTFSNFTFWREPLPPFENQDMHSASA
stoichiometry N: ~4
